B1: Human ubiquitous dynamin 2 isoform (Ub-DNM2), recombinant (natural protein, UniProt P50570-2 1-866, looked up)
chain: MGNRGMEELIPLVNKLQDAFSSIGQSCHLDLPQIAVVGGQSAGKSSVLENFVGRDFLPRGSGIVTRRPLILQLIFSKTEHAEFLHCKSKKFTDFDEVRQEIEAETDRVTGTNKGISPVPINLRVYSPHVLNLTLIDLPGITKVPVGDQPPDIEYQIKDMILQFISRESSLILAVTPANMDLANSDALKLAKEVDPQGLRTIGVITKLDLMDEGTDARDVLENKLLPLRRGYIGVVNRSQKDIEGKKDIRAALAAERKFFLSHPAYRHMADRMGTPHLQKTLNQQLTNHIRESLPALRSKLQSQLLSLEKEVEEYKNFRPDDPTRKTKALLQMVQQFGVDFEKRIEGSGDQVDTLELSGGARINRIFHERFPFELVKMEFDEKDLRREISYAIKNIHGVRTGLFTPDLAFEAIVKKQVVKLKEPCLKCVDLVIQELINTVRQCTSKLSSYPRLREETERIVTTYIREREGRTKDQILLLIDIEQSYINTNHEDFIGFANAQQRSTQLNKKRAIPNQVIRRGWLTINNISLMKGGSKEYWFVLTAESLSWYKDEEEKEKKYMLPLDNLKIRDVEKGFMSNKHVFAIFNTEQRNVYKDLRQIELACDSQEDVDSWKASFLRAGVYPEKDQAENEDGAQENTFSMDPQLERQVETIRNLVDSYVAIINKSIRDLMPKTIMHLMINNTKAFIHHELLAYLYSSADQSSLMEESADQAQRRDDMLRMYHALKEALNIIGDISTSTVSTPVPPPVDDTWLQSASSHSPTPQRRPVSSIHPPGRPPAVRGPTPGPPLIPVPVGAAASFSAPPIPSRPGPQSVFANSDLFPAPPQIPSRPVRIPPGIPPGVPSRRPPAAPSRPTIIRPAEPSLLD
notes: dynamin 2 (DNM2), human, ubiquitous isoform; same variant of exon 10 as the M-DNM2 plasmid; No tag is stated for the pVL1392 constructs; also called WT Ub-DNM2
B2: Human SH3 domain of BIN1 with Glutathione S-transferase (GST) tag (domain or fragment, UniProt O00499 520-593, looked up)
chain: GFMFKVQAQHDYTATDTDELQLKAGDVVLVIPFQNPEEQDEGWLMGVKESDWNQHKELEKCRGVFPENFTERVP
notes: amphiphysin 2 (BIN1), human, SH3 domain; The methods also describe cutting off the GST tag with PreScission on the beads; also called GST-SH3; GST-SH3 of BIN1

Columns and labels:
[1] = target: the molecule itself; experiment: SEC-MALS; Superose 6 10/300 GL; 20 mM HEPES pH 7.4, 1.5 M NaCl, 1 mM EGTA, 1 mM DTT, 5% glycerol; 4 °C, 0.5 ml/min
[2] = target: B1; experiment: pull-down; GST-SH3 of BIN1 (0.16, 0.4 or 1.6 ml supernatant) bound to GSH-Sepharose overnight, washed with 300 mM NaCl, 50 mM Tris pH 8.0, 5 mM imidazole, 1 mM DTT; 0.07 mg purified M-DNM2 or Ub-DNM2 added for 20 min, washed; resin loaded on SDS-PAGE; conditions: both partners purified

binding result [2] | Binder | binding result [1]
– | B1 | binds
binds | B2 | –

From PMC9652393, “Differential impact of ubiquitous and muscle dynamin 2 isoforms in muscle physiology and centronuclear myopathy” (Nature Communications, 2022)
